From the nanobody polyreactivity screen of Harvey et al. (2022)

Test: yeast display, Sf9 membrane polyspecificity reagent, FACS + sequencing; frameworks hold sequencing errors
Method in brief: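 Galactose induction of a Saccharomyces cerevisiae BJ5465 synthetic nanobody display library ran 36–48 hours. The cells were then stained for 1 hour at 4 °C with 10% biotinylated, detergent-solubilized Sf9 membrane reagent, pulled down on streptavidin microbeads and FACS-sorted into low and high (top ~1%) gates on expression and reagent-binding fluorescence. Labels for polyreactivity follow the gate of origin.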

Row | Sequence | polyreactivity (PSR sort gate)
1 | QVQLVESGVGLVQAGGSLRLSCAASGNTFTAYSMGWYRQAPGKERELVAAISSSGRTNYADSVKGRFTISRDNAKNTVYLQMNSLKPADTAVYYCAAAALRRNGVREGNYWGQGTQVTVSS | high polyreactivity
2 | QVQLVESGVGLVQAGGSLRLSCAASGRIFGAYAIGWYRQAPRKERELVAAISGSGGRTYYADSVKGRFTISRDSEKNTVYLQMNRLKPEDTAVYYCNKGYVYGHEYWGQGTQVTVSS | high polyreactivity
3 | QVQLVESGVGLVQAGGSLRLSCAASGRIFGVYVMGWYRQAPGKERELVAGISPSGGSTYYADSVKGRFTISRDNAKNTVYLQMNSLKPEDTAVYYCAAVLRIRRPRYGYWGQGTQVTVSS | high polyreactivity
4 | QVQLVESGVGLVQAGGSLRLSCAASGRIFRRYTMGWYRQPPGKERELVAAISASGGNTYYADSVKGRFTISRDNAKNTVYLQMNSLKPEDTAVYYCARRWRPWTQDGDDYWGQGTQVTVSS | high polyreactivity
5 | QVQLVESGVGLVQAGGSLRLSCAASGRIFTGYAMGWYRQAPGKERELVAAITSSGDGTNYADSVKGRFTISRDNAKNTVYLQMNSLKPEDTAVYYCNADGSYKMDWGQGTQVTVSS | low polyreactivity
6 | QVQLVESGVGLVQAGGSLRLSCAASGRIFYNNVRGWYRQAPGKERELVAGISGNGGSTYYPDSVKGRFTISRDNAKNTVYLQMNSPKPEDTAVYYCAARSSFRTLIFYQKFDYWGQGTQVTVSS | low polyreactivity
7 | QVQLVESGVGLVQAGGSLRLSCAASGRPFVAYAMGWYRQAPGTERELVARISSGGGTYADSVKGRFTISRDNAKNTVYLQMNSLKPEDTAVYYCATSLQRQFDYWGQGTQVTVSS | low polyreactivity
8 | QVQLVESGVGLVQAGGSLRLSCAASGRTFEPNAMGWYRHAPGKERELVAGITWSGGSTYYADSVKGRFTISRDNAKNTVYLQMNSLKPEDTAVYYCNAPITWKRSHYGYWGQGTQVTVSS | low polyreactivity
9 | QVQLVESGVGLVQAGGSLRLSCAASGRTFFGYAMGWYRQAPGKEREFVARISWRGTSTTYADSVKGRFTISRDNAKNTVYLQMNSLKPEDTAVYYCAASQYGLRVYFTVGYWGQGTQVTVSS | high polyreactivity
10 | QVQLVESGVGLVQAGGSLRLSCAASGRTFGVYAMGWYRQAPGKESTYYADSVKGRFTISRDNAKNTVYLQMNSLKPEDTAVYYCNARGGFGYITMDYWGQGTQVTVSS | low polyreactivity
11 | QVQLVESGVGLVQAGGSLRLSCAASGRTFISNVMGWYRQAPGKERELVAAISGSSGSTRYADSVKGRFTISRDNAKNTVYLQMISLKPEDTAVYYCAARAPWPKWGYYYWGQGTQVTVSS | high polyreactivity
12 | QVQLVESGVGLVQAGGSLRLSCAASGRTFSTNAMGWYIQAPGKERELVAAITSRGGSTYYADSVKGRFTISRDNAKNTVYLQMNSLKPEDTAVYYCAVDPLYSKTHYVTLGYYYWGQGTQVTVSS | low polyreactivity
13 | QVQLVESGVGLVQAGGSLRLSCAASGRTISYNARGWYRQAPGKEREFVADINYSAGSTYYADSVKGRFTISRDNAKNTGKLQMNRLKPEDTAVYYCAAKYYGEMYSWGQGTQVSVSS | low polyreactivity
14 | QVQLVESGVGLVQAGGSLRLSCAASGSIFDKNAMGWDRPAPGKERELVAAISRSGGSTYYADSVKGRFTISRDNAKNTVYLQMNSLKPEDTAVYYCNKYTNGRNFDYWGQGTQVTVSS | high polyreactivity
15 | QVQLVESGVGLVQAGGSLRLSCAASGSIFFKYAMGWYRQAPGKERELVAGITSTGRTYYADSVKGRFTISRDNAKNTVYLQMNSLKPEDTAVYYCNARTLPTYYRRYDYWGQGTQVTVSS | high polyreactivity
16 | QVQLVESGVGLVQAGGSLRLSCAASGSIFFPNAMGWYRQAPGKQRELVAAITSTSTNYAESVKGRCTISRDNAKNTVYLQMNSLKPEDTAVYYCAADGEFRRAWYEGDYWGQGTQVTVSS | low polyreactivity
17 | QVQLVESGVGLVQAGGSLRLSCAASGSIFSPNAMVWSRQAPGKERELVAAITWSGDSTYYADSVKGRFTISRDNAKNTVYLQINSLKREDTEVYYCAADFTYQGSSANDYWGQGSQVTVSS | low polyreactivity
18 | QVQLVESGVGLVQAGGSLRLSCAASGSIFWLYAMGWYRQAPGKERELVAAIDSGDSTKYADSVKGRFTISRDTAKNTVYLQMNSLKPEETAVYYSAKDYYYGLEHYGYWGQGTQVTVSS | low polyreactivity
19 | QVQLVESGVGLVQAGGSLRLSCAASGSTFANNAMGWYRQAPGKERELVAAISWSGGSTYYADSVKGRFTISRDNAKNTVYLQMNSLKPEDTAVYYCAADSPRYGGYGYWGQGTQVTLSS | low polyreactivity
20 | QVQLVESGVGLVQAGGSLRLSCAASGSTFDYYVMGWYRQAPGKVRELVAAISETGDDTYYADSVKGRFTLSRDNAKNTVYLQINRLNPEDTAVYYCAADSYFYSGFVRRFYFWGQGSQVTVSS | high polyreactivity
21 | QVQLVESGVGLVQAGGSLRLSCAASGSTFLTNVMGWYRQAPGKERELVAAITIGGSTNYADSVKGRFTISRDNAKNSVYLQMNSLKPEDTAVYYCATDIRRKPRYVDYEYWGQGTQVSVSS | low polyreactivity
22 | QVQLVESGVGLVQAGGSLRLSCAASGSTFRRNTMGWYRKAPGKERELVAAINYSGGSTYYADSVKGRFTISRDNAKNTVYLQMNSLKPEDTAVYYCAARYAYDFPYYYWGQGTQVTVSS | high polyreactivity

Row | Sequence | polyreactivity (PSR sort gate)
23 | QVQLVESGVGLVQAGGSLRLSCAASGSTFVWYAMGWYRQAPGKERELVAVIDWSGGSTSYADSVKGRFTISRDNAKNTVSFQMNSLKPEDTAVYYCAAQQGVISRGNYWGQGTQVTVSS | low polyreactivity
24 | QVQLVESGVGLVQAGGSLRLSCAASGSTFYKYTMGWYRQAPGKESELVSAISRSGGRTYYADSVKGRFTISRDNAKNTVYLQMNSLKPEDTAVYYCAVVTPRYYGDTKYDYWGQGTQVTVSS | high polyreactivity
25 | QVQLVESGVGLVQAGGSLRLSCAASGSTILQNAMGWYRQAPGKERELVAAISRSGGSTYYADSVKGRFTISRDNAKNTVYLQMNSLKPEDTAVYYCAAGGRRYDDDYWGQGTQVTVSS | high polyreactivity
26 | QVQLVESGVGLVQAGGSLRLSCAASGSTYRYAMGWYRQAPGKERELVAAISRSTGSTYYADSVKGRLTISRDNANNTVNLQMNRLKPEDTAVYYCARDVYYRGYKYGYWGQGTQVTVSS | high polyreactivity
27 | QVQLVESGVGLVQAGGSLRLSCAASVRIFLFYAMGGYRQAPVKERELVAAITSGGSTYYADSVKGRFTMSRDNAKNTVYLQMNSLKPEDTAVYYCANYYWGQGTQVTVSS | low polyreactivity
28 | QVQLVESGVGLVQAGGSLRLSCAASVSTFAYNAMGWYRQSPGKEREIVASISWSGGSTYYADSVKGRFTISRDNAKNSVYLQMNSLKPEDTAVYYCAADLNAYPQRAYDYWGQGTQVTVSS | low polyreactivity
29 | QVQLVESGVGLVQAGGSLRLSCAAYGYTFYRYAMGWYRQAPGKERELVAAINKSGGRTYYADSVKGRFTISRDNAKNTVYLQMNSLKPEDTAVYYCNTPFDYPDNPEYDYWGQGTQVTVSS | high polyreactivity
30 | QVQLVESGVGLVQAGGSLRLSCASSGLIFYDNMGWYRQAPGKERELVAAISSSGGSTSYADSVKGRFTISRDNAKNTVYLQMNSLKPEDTAVYYCAADYRRYGSYDYWGQGTQVTVSS | low polyreactivity
31 | QVQLVESGVGLVQAGGSLRLSCASSGRTFTPNGMGWYRQAPGKERELVAAITYGGGITDYADSVKGRFTISRDNAKNTVYLQMNRLNPEDTAVYYCAATTLSFEGGKYWSKYDYWGQGTQVTVSS | low polyreactivity
32 | QVQLVESGVGLVQAGGSLRLTCAASGSIFSVYAMGWYRPAPGKESELVAAITSSGGLTYYADSVKGRITISRDYAKNSVYLQMTSLIPEDTAVYYCATRGIPDDIARDYWGLGTQVTVSS | low polyreactivity
33 | QVQLVESGVGLVQAGGSLSLSCAASGITFPYVMGWYRQAPGKERELVAAISRTGTSTYYADSVKGRFTSSRDNAKNNVYLEMNTLKPEDTAVYYCAARTQTQVYPAYGYWGQGTQVTVSS | high polyreactivity
34 | QVQLVESGVGLVQAGGTLRLSCAASGSIFDWNVIGWYRQTPGKERELVASISESTDSTYYADSVKGRFTISRDNAKNTVYFQMNSLKPEDTAVYYCATAYPEWAVWGYDYWGQGTQVTLSS | low polyreactivity
35 | QVQLVESGVGLVQAGGTLRLSCAATGSIFWDYAMGWYRHAPGKERQLVASITSGGSTYYADSVKGRFTISRDNAMNTVYLQMNSLKPEETAVYYCAADGHTRHWGQTGRGAMYYWGQGTQVTVSS | low polyreactivity
36 | QVQLVESGVGLVQAGRSLSLICAASGSTFFLYGMGWYIQAPGKERDLVAAITWNGGSTYYADSVKGRFTISRDNAKNTVYLQMKSLKPEDTAVYYCAADYYGFFSTPYDYWGQGTQVSVSS | low polyreactivity
37 | QVQLVESGVGLVQARGSLRLSCAASGSIFKYYTRRWYRQAPGKERELVSGISYRGGSTYSADSVKGRFTISRDNAKNTVYLQMNSLKPEDTAVYYCYAFLLSGGDYWGQGSQVTVSS | high polyreactivity
38 | QVQLVESGVGLVQAVGSLRLSCAASGSTFPWYAMGWYRQAPGKERSLVAGSSEGGGSTYYADSVKGRFTISRDNAKNTVYLQMNRLKPEDTAVYYCAADQVGAVYWVGEYGYWGQGTQVTVAS | low polyreactivity
39 | QVQLVESGVGLVQPGGSLRLSSAASGSTSLVNAMRRYRQAPGKERELVAAITRGGNTYYADSVKGRFTISRDNAKNTVYLQMNSLKPEDTAVYYCAAEDHSELGQYDYWGQGTQVTVSS | low polyreactivity
40 | QVQLVESGVRLLQAGGSLRLSCAASGRIFGVYAMGWYITAPGKERELVAAIRGGGSTKYADSVKGRFTISRDNAKNTVYLQMKSLKPEDTAVYYFAARKLYYKHDYWGQGTQVTVSS | low polyreactivity
41 | QVQLVESGVRLVQAGGSLRLSCAASGFNFRRYAMGWYRPAPGKERELVAAISWRSGSTYYADSVKGRFTISRDNAKNTVYLQMNSLKPEDTAVYYCAAKDQATYQLNYWGQGTQVTVSS | high polyreactivity
42 | QVQLVESPGGLVQAGGSLRLSCAASGRTFYRNAMGWYRQAPGKERELVAVISLNGGRTYYADSVKGRFTISRDNAKNTVYLQMNSLKPEDTAVYYCNKLTGPVFTRGFYYWGQGTQVTVSS | high polyreactivity
43 | QVQLVESRAGLVQEGGSLRVSCAASGNILGTYAMGWYRQAPGKERELVAAISSSVGSTYYADSVKARFTISRDNAKNTVYLQINSLKPEDTAVYYCAPQPRVDYEFPYRYGYWGQGSQVTVSS | low polyreactivity
